# US20230391867A1 (SHENZHEN ENDURING BIOTECH, published 2023)
# B1: JY102 (30kmPEG-(SCACD3)SCACD47) (bispecific antibody)
# scFv 1: not shown
# scFv 2: DIVMTQSPLSLPVTPGEPASISCRSSQSIVYSNGNTYLGWYLQKPGQSPQLLIYKVSNRFSGVPDRFSGSGSGTDFTLKISRVEAEDVGVYYCFQGSHVPYTFGQGTKLEIKGGCSGGSGGSGGSGGQVQLVQSGAEVKKPGASVKVSCKASGYTFTNYNMHWVRQAPGQRLEWMGTIYPGNDDTSYNQKFKDRVTITADTSASTAYMELSSLRSEDTAVYYCARGGYRAMDYWGQGTLVTVSS
# modifications: free thiol (Cys) in the VL-VH linker is conjugated to Azide-PEG10-Maleimide; the azide is clicked to the DBCO of 30kmPEG-Lys(SCACD3)-DBCO; free thiol (Cys) genetically inserted in the VH-VL linker is conjugated to the maleimide of 30kmPEG-Lys(maleimide)-DBCO
# notes: also called Compound 12; compound 12
# Tests used:
# [1] = target: T1, CD47 on human cells (red blood cells from healthy human donors; BxPC3; ZR-75-1) (human, UniProt Q08722 19-323); test: cell-based or functional assay
# T1 sequence (Q08722 19-323): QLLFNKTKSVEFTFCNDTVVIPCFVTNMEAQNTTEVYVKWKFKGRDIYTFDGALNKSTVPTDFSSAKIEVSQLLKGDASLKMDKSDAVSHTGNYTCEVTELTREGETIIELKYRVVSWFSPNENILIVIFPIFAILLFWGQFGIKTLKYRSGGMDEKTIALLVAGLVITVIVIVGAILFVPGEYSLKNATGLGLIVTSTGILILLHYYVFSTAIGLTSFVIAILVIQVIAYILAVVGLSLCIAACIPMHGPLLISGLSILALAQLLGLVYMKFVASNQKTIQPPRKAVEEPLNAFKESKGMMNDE
# [2] = target: T2, Human CD47 Protein, Fc Tag (HPLC verified; Acro, cat:CD7-H5256-100ug) (human, UniProt Q08722 19-139); test: ELISA, plate coated with human CD47 Fc Tag protein, anti-SCACD3 detection
# T2 construct: Bought Fc-tagged CD47 coated on the ELISA plate; not shown: Fc tag
# T2 sequence (Q08722 19-139 limits assumed): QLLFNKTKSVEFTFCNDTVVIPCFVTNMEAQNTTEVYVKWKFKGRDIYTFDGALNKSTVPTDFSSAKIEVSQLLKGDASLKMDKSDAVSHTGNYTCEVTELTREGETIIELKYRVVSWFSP
# [3] = target: T1, CD47 on human cells (red blood cells …); test: flow cytometry, JY102-Alexa Fluor 488 at 10 ug/ml, % stained BxPC3 cells against % stained RBCs
# Experimental: Again, RBC cells from healthy human donors or cultured BxPC3 cells were collected and resuspended to a concentration of approximately 5×10⁶ cells/ml in ice cold PBS, 3% BSA. 100 μl of cell suspension was used for each binding reaction and incubated with indicated doses of JY102-Alexa Fluor 488 for at least 30 min at room temperature (or 4° C. for the assay in panel C) in the dark. Then cells were washed 3 times by centrifugation at 400 g for 5 min and resuspended in ice cold PBS, 3% BSA. Each sample was subjected to flow cytometry analysis.
binder,measurement,setting,value
B1,"EC50 of T cell mediated cytotoxicity (MTS assay, expanded T cells, E:T 5:1, 24 h) to ZR75-1",[1],111 ng/mL
same,EC50,[2],0.187 µg/mL
same,fold difference in binding (BxPC3 cells against RBCs),[3],40 fold
